1 molecule from paper PMC4449551, “The dominant negative ARM domain uncovers multiple functions of PUB13 in Arabidopsis immunity, flowering, and senescence” (Journal of Experimental Botany, 2015) can be followed below.

For this assay, the target named is T1, GST–PUB13 (Arabidopsis, UniProt Q9SNC6 1-660).
T1 construct: PUB13, plant U-box E3 ubiquitin ligase of Arabidopsis, full length (UND, U-box and ARM repeat domain); also called full-length PUB13; source: E. coli BL21, purified (glutathione agarose)
T1 sequence (looked up): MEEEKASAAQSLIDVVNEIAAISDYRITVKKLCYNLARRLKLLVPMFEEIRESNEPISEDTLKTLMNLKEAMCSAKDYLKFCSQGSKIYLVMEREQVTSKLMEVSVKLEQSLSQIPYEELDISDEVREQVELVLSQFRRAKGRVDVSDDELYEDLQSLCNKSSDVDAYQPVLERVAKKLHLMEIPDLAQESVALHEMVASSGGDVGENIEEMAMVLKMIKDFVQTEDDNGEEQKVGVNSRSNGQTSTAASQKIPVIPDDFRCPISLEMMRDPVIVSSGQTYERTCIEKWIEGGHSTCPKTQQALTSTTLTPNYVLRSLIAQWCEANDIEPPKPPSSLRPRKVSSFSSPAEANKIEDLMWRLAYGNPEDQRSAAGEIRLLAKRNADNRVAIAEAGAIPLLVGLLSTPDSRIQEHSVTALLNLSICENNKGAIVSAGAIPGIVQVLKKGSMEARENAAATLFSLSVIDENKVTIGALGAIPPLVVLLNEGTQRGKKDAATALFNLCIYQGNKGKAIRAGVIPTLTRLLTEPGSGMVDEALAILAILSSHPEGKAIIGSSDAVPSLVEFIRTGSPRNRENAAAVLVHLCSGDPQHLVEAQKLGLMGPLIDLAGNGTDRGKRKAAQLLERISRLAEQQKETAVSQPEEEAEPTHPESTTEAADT
Nature of the assay: pull-down; About 10 μg of MBP or MBP fusion on amylose beads as bait, 10 μg of GST-tagged protein in 1 ml pull-down buffer (20mM TRIS-HCl pH 7.5, 1mM β-mercaptoethanol, 3mM EDTA, 150mM NaCl, 1% NP-40), 1h at 4 °C; western blot with α-GST (Fig. 1B, 1F). The following applies: both partners purified. In general terms: In western blotting, separated proteins are transferred to a membrane and probed.

B1: MBP–BAK1CD (domain or fragment, Arabidopsis, UniProt Q94F62 247-615, looked up)
chain: AWWRRKKPQDHFFDVPAEEDPEVHLGQLKRFSLRELQVASDNFSNKNILGRGGFGKVYKGRLADGTLVAVKRLKEERTQGGELQFQTEVEMISMAVHRNLLRLRGFCMTPTERLLVYPYMANGSVASCLRERPESQPPLDWPKRQRIALGSARGLAYLHDHCDPKIIHRDVKAANILLDEEFEAVVGDFGLAKLMDYKDTHVTTAVRGTIGHIAPEYLSTGKSSEKTDVFGYGVMLLELITGQRAFDLARLANDDDVMLLDWVKGLLKEKKLEALVDVDLQGNYKDEEVEQLIQVALLCTQSSPMERPKMSEVVRMLEGDGLAERWEEWQKEEMFRQDFNYPTHHPAVSGWIIGDSTSQIENEYPSGPR
notes: BAK1 (BRI1-associated kinase), receptor-like kinase of Arabidopsis, cytoplasmic domain; also called cytoplasmic domain of BAK1; BAK1 cytosolic domain; source: E. coli BL21, purified (amylose)
Take B1: the binding result is reported as “binds”.
